Experimental data as given in patent EP3265123B1 (Kymab Limited, dated 2022).

B1: 9H04 (hybridoma) (antibody, V domains shown)
VH: QVQLVESGGGLVKPGGSLRLSCAASRFTLSDYYMTWIRQAPGKGLEWVSYISSSGNTIYYADSVKGRFTISRDNAKNSLYLQMNSLRAEDTAVYYCARDLSGSYWDYYYGMDVWGQGTTVTVSS
VL: AIQLTQSPSSLSTSVGDRVTIACRASQGINNALAWYQQKPGKAPKLLIYDASSLESGVPSRFSGSGSGTDFTLTISSLQPEDFATYYCQQFNSYPRTFGQGTKVEIK
notes: Purified from hybridoma supernatant as a murine/human chimeric antibody (human variable domains, mouse constant regions); also called 09H04
B2: 2D10 (human) (antibody, human IgG4 S228P, kappa, V domains shown)
VH: EVQLVESGGGLVQPGGSLRLSCAASGFTFSNYAMNWVRQAPGKGLEWVSTISGSGGATRYADSVKGRFTISRDNSRNTVYLQMNSLRVEDTAVFYCTKDRLIMATVRGPYYYGMDVWGQGTTVTVSS
VL: DIQMTQSPSSLSASVGDRVTITCRASQSISSYLNWYQQKPGKAPNLLIYAASSLQSGVPSRFSGSGSETDFTLTISSLQPEDFATYYCQQSHSVSFTFGPGTKVDIKR
notes: Fully human recombinant IgG4-PE (Ser228Pro, Leu235Glu) with human kappa light chain, expressed in CHO-S; also called 02D10; 2D10 IgG4PE
B3: 19H01 (hybridoma) (antibody, V domains shown)
VH: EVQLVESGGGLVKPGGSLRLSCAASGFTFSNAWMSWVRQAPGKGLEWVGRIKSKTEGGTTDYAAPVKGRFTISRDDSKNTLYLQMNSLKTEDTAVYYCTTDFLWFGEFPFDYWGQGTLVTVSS
VL: DIQMTQSPSSLSASVGDRVTITCRASQGISNYLAWYQQKPGKIPKLLIYAASTLQSGVPSRFSGSGSGTDFTLTISSLQPEDVATYYCQKYNSAPRTFGQGTKVEIK
notes: Purified from hybridoma supernatant as a murine/human chimeric antibody (human variable domains, mouse constant regions)

Columns and labels:
[1] = molecular target: T1, Recombinant Human OX40L (Leader sequence, Isoleucine Zipper and FLAG Sequence Included) (human); experiment: SPR (ProteOn XPR36), antibody captured on anti-mouse IgG, OX40L at 256 nM, 1:1 model, apparent affinity, 25 C
T1 construct: In-house construct: extracellular domain of human OX40L with a FLAG motif and an isoleucine zipper to aid trimerisation; It was used biotinylated in the HTRF assays and unlabelled in SPR and the T-cell assay; also called hOX40L; biotinylated OX40L
T1 sequence (chain, as listed by the source limits assumed): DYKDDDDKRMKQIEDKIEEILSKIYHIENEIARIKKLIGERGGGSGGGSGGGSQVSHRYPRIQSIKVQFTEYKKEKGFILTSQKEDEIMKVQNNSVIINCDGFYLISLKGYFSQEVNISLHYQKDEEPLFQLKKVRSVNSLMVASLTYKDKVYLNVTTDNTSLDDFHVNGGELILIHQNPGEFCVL

[2] = molecular target: T1, Recombinant Human OX40L (Leader …); experiment: cell-based or functional assay
[3] = molecular target: T1, Recombinant Human OX40L (Leader …); experiment: HTRF ligand/receptor neutralisation, biotinylated hOX40L with OX40RFc-AF647 as competitor; mean of three experiments

Row | Binder | Kd [1] | Primary T-cell Assay IC50 (recombinant OX40L induced IL2 release from primary human T-cells) [2] | IC50 [3]
1 | B1 | 5.3 nM | – | –
2 | B2 | – | 0.81 nM | 0.75 nM
3 | B3 | 2.2 nM | – | –
